Experimental findings from the RNAGym collection of RNA variant scans (doi:10.7554/elife.90254) are described below.

B1: LINE1-full (parent)
chain: UACGUAGGUGGUUUUCCCCUGAUAGUGCUAAGGGGGCCUGGAAGUUUGGACUGGGCAGAGCUCAACACAGCGUGGCAAAGUGGCUGUGGCUAGACUGCCUCUCUGGAUUCCUCGUCACUCAGCAGGGCAUCUCUGAGAGAAAUGCC

The variants in the data set derive from B1. Briefly: self-cleavage, relative activity (ratio to wild type); higher = more cleavage; in vitro, sequencing; the parent is a self-cleaving ribozyme.
Consider U12C G35U, for which the self-cleavage amounted to 1.53. In the case of U12C G83U, the self-cleavage turned out to be 1.07. In the case of U13C C110A, the self-cleavage was determined as 1.29.

Take U12G A69G: the self-cleavage turned out to be 0.77. For the variant U13C A79G, the self-cleavage turned out to be 1.25.

With U13C A79U, the self-cleavage turned out to be 1.53. As to U12C U14C, the self-cleavage was 1.12.

For the variant U12G G89A, the self-cleavage stood at 0.14.

Take U12C C146U: the self-cleavage amounted to 1.63. For U12C C146A, the self-cleavage was determined as 1.45. The value for U12C G80A was 0.84; that for U12C G82C was 2.15; that for U13A U96A was 0.05. The value for U13C A69G was 0.5. The same measure for U12G U91C: 1.02; for U13A U134A: 0.51. Take U13A U134G: the self-cleavage was found to be 1.34. With U12A C18G, the self-cleavage stood at 1.01.

Consider U12A U96C, for which the self-cleavage was 0.28.

For the variant U12G A24U, the self-cleavage came out at 1.5.

Consider U13A A129G, for which the self-cleavage worked out at 1.2. Turning to U13A A129U, the self-cleavage amounted to 0.81.

As for U13A U109A, the self-cleavage was 0.28. The value for U13C C37U was 1.33. The value for U13C C37G was 1.03. The same measure for U12C A138U: 1.21; for U12C A42G: 1.48; for U12C A42C: 0.85. Regarding U13C C113U, the self-cleavage was 1. For U13C C113A, the self-cleavage is 0.44. Take U13A G60C: the self-cleavage was 0. As to U13A A124U, the self-cleavage is 0.98. The value for U13A A124G was 0.97. The same measure for U12C U119A: 1.78. The same measure for U12C G48A: 0.97; for U13A U100C: 1.28. As for U13A U100A, the self-cleavage stood at 0.59. Take U13A U87A: the self-cleavage is 0.07. The same measure for U13A U87C: 0.16; for U12A U13A: 1.08. For the variant U12A A94U, the self-cleavage worked out at 0.51. The same measure for U12G U15C: 0.9; for U13C C56U: 0.15. As to U12C A77G, the self-cleavage came out at 1.8.

As to U12C A77U, the self-cleavage came out at 1.26.

In the case of U12G U119G, the self-cleavage worked out at 0.8. Turning to U13A U112A, the self-cleavage was determined as 0.45.

As to U13A U112C, the self-cleavage was found to be 0.9. On to U12C U46G, for which the self-cleavage is 0.82. The same measure for U12C U46A: 1.24. Regarding U13A C133U, the self-cleavage worked out at 0.67.

For U13A C133A, the self-cleavage worked out at 0.97. The same measure for U13A A43G: 0.96; for U12C A129U: 1.53.

In the case of U12C A129C, the self-cleavage was found to be 1.99.

In the case of U12G A30U, the self-cleavage was 0.83.

Turning to U12G A30G, the self-cleavage is 1.2. The same measure for U12C A24U: 1.18. Regarding U12C A24C, the self-cleavage worked out at 1.61. The value for U12C U39G was 0.84; that for U13C A22G was 1.11. Regarding U12C C99G, the self-cleavage came to 0.63. The value for U12G U20A was 1.08. As to U12G C103A, the self-cleavage is 1.15. Regarding U13A U39C, the self-cleavage amounted to 0.61.

As for U12A A42G, the self-cleavage amounted to 1.28. The same measure for U12A A42U: 1.75; for U12A U85C: 0.2; for U12C A94G: 0.37. Turning to U12C U109A, the self-cleavage is 1.49. The value for U12A U115A was 1.58; that for U12A U115C was 1.21; that for U12C G36C was 0.95. The same measure for U12A G53C: 1.12; for U13C A129U: 1.13. The value for U13C A129G was 1.52; that for U12C A57G was 1; that for U13C A31G was 0.84. Consider U13C A31C, for which the self-cleavage is 0.97. The value for U12G U100C was 1.33; that for U12G G21A was 1.19; that for U13A A50U was 0.58.

Regarding U12G G139A, the self-cleavage was determined as 0.95. The value for U13C C123A was 1.42. Regarding U12C A107G, the self-cleavage stood at 0.99. On to U12C A65U, for which the self-cleavage amounted to 0.21. For the variant U12G A57U, the self-cleavage is 0.17.

As for U13C A92U, the self-cleavage turned out to be 0.68. The same measure for U13C A92G: 0; for U12G G32C: 1.04; for U12C A31G: 1.24. Regarding U12C U130C, the self-cleavage stood at 1.4. U13C C63U: the self-cleavage was determined as 0.32. As to U12A A124U, the self-cleavage stood at 1.23. The value for U12A A124G was 0.87; that for U13C C111A was 1.57. For the variant U12G A124G, the self-cleavage was 0.84. In the case of U12C U115G, the self-cleavage stood at 2.63. The same measure for U12C U115A: 0.87; for U12G U96C: 0.27. The value for U12C G144A was 1.08. U12A U132C: the self-cleavage worked out at 1.41. For U12A U100C, the self-cleavage came to 1.64. Regarding U12C A78U, the self-cleavage worked out at 1.52. On to U12C U143A, for which the self-cleavage is 1.25. Consider U12A A92G, for which the self-cleavage was found to be 0. For U12C U85A, the self-cleavage was 0.06.

Take U13A C28U: the self-cleavage was 0.76. U12G U85A: the self-cleavage turned out to be 0.22. The value for U12G U85G was 0.21; that for U12G A140C was 0.48.

As for U12G A140G, the self-cleavage was found to be 0.91. The same measure for U13A A57U: 0.06; for U13A A57G: 0.51. The same measure for U13A A141G: 1.26. The value for U12C A64G was 0.28; that for U13A A31C was 1.52. Take U12G A22G: the self-cleavage was 1.04. The same measure for U12C C116U: 0.77; for U13A U143C: 1.51.

For the variant U12C U96G, the self-cleavage was found to be 0.28. The value for U13A A78G was 0.84. As for U13C A50G, the self-cleavage was found to be 0.63. The value for U12G A67U was 0.23; that for U12G A67G was 0.53; that for U12C U102G was 0.88. The value for U12C U102C was 1.18. For the variant U13A U104C, the self-cleavage stood at 1.51. The value for U13A U104A was 0.94; that for U12G G105U was 0.67. The same measure for U13C A64G: 0.35.

U12C G72A: the self-cleavage was determined as 1.25. Turning to U12G A64U, the self-cleavage was determined as 0.83.

Take U12G G34U: the self-cleavage turned out to be 2.48.

Regarding U12A A141U, the self-cleavage amounted to 0.64. For U12G G70A, the self-cleavage was determined as 0.07. U12A C66U: the self-cleavage came to 0.06.

Turning to U12C U52G, the self-cleavage was found to be 1.84. As for U12C U52C, the self-cleavage is 1.11. The value for U12G C99A was 0.32. The same measure for U12C A136U: 1.43; for U12A G72A: 1.41; for U13A G55A: 0.21. On to U13C A24G, for which the self-cleavage was 1.16. With U13A A30G, the self-cleavage was determined as 0.97. Turning to U12A A22G, the self-cleavage came to 1.14.

Regarding U12C U104A, the self-cleavage amounted to 1.3. Consider U12C U104C, for which the self-cleavage was determined as 1.56.

In the case of U12A A30U, the self-cleavage amounted to 1.63. With U12C C113U, the self-cleavage worked out at 0.76. The value for U12C C113A was 0.64; that for U12A U45G was 1.33. Turning to U13C C68U, the self-cleavage came to 0.17. For U12G U102C, the self-cleavage stood at 0.59. With U13A A22G, the self-cleavage turned out to be 1.05. The value for U13C C146U was 1.64. As to U13A C110A, the self-cleavage was found to be 0.84. The same measure for U12A U20C: 1.05. The value for U12A A57G was 1.23; that for U13A G35A was 0.65. U12C U73G: the self-cleavage turned out to be 1.29. The same measure for U12C: 1.29; for U12G: 1.13; for U13A G126A: 1.08. As for U13C C38U, the self-cleavage amounted to 1.15. For U12C G135U, the self-cleavage came to 1.57. The same measure for U12C G49A: 1.28.
